Laboratory results: IntAct's records for PubMed 19804755

B1: DNA repair and telomere maintenance protein nbs1 (Schizosaccharomyces pombe (strain ATCC 38366 / 972)), O43070 (parent)
chain: MWIIEAEGDILKGKSRILFPGTYIVGRNVSDDSSHIQVISKSISKRHARFTILTPSEKDYFTGGPCEFEVKDLDTKFGTKVNEKVVGQNGDSYKEKDLKIQLGKCPFTINAYWRSMCIQFDNPEMLSQWASNLNLLGIPTGLRDSDATTHFVMNRQAGSSITVGTMYAFLKKTVIIDDSYLQYLSTVKESVIEDASLMPDALECFKNIIKNNDQFPSSPEDCINSLEGFSCAMLNTSSESHHLLELLGLRISTFMSLGDIDKELISKTDFVVLNNAVYDSEKISFPEGIFCLTIEQLWKIIIERNSRELISKEIERLKYATASNSTPQKIIQPQRHIQKNIVDDLFSVKKPLPCSPKSKRVKTLENLSIMDFVQPKQMFGKEPEGYLSNQSNNGSAQNKKSGDNSEKTKNSLKSSSKKSANTGSGQGKTKVEYVSYNSVDKGNSSPFKPLELNVVGEKKANAEVDSLPSENVQESEDDKAFEENRRLRNLGSVEYIRIMSSEKSNANSRHTSKYYSGRKNFKKFQKKASQKAPLQAFLSLSEHKKTEVFDQDDTDLEPVPRLMSKVESIPAGASSDKSGKSSISKKSSNSFKELSPKTNNDEDDEFNDLKFHF
partner: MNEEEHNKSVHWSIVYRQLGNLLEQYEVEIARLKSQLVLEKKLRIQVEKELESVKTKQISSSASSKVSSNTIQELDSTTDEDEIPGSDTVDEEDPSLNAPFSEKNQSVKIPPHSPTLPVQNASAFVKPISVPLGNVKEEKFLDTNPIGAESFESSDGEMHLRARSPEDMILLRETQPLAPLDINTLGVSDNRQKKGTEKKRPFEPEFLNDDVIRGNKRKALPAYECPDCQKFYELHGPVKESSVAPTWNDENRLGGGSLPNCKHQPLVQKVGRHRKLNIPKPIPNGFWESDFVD

Variants of: B1
Details: with com1_schpo ctp1, O74986

**Q.** For R27A;K45A, which “effect of a mutation on the interaction” value is on record?
**A.** decreasing interaction
